Test results reported in US20260028402A1 (published 2026).
Numbering of substitutions follows the chain as printed. Like-named read-outs stand apart in the source and are kept apart here. Blank lines part the entries; values can stand above or below the binder they belong to.

What was measured:
[1] = target: T1, cynomolgus monkey PD-L1 on cells (cynomolgus monkey, UniProt G7PSE7 19-290); test: FACS binding
[2] = target: T1, cynomolgus monkey PD-L1 on cells; test: FACS binding; remark: listed apart in the source
[3] = target: CynoCD100-HEK293 (cynomolgus monkey); test: FACS
[4] = target: T2, full-length human CD100 protein HuCD100 on cells (human, UniProt Q92854 22-862); test: FACS
[5] = target: T3, full-length mouse CD100 protein MusCD100 on cells (mouse, UniProt O09126 24-861); test: FACS
T3 chain: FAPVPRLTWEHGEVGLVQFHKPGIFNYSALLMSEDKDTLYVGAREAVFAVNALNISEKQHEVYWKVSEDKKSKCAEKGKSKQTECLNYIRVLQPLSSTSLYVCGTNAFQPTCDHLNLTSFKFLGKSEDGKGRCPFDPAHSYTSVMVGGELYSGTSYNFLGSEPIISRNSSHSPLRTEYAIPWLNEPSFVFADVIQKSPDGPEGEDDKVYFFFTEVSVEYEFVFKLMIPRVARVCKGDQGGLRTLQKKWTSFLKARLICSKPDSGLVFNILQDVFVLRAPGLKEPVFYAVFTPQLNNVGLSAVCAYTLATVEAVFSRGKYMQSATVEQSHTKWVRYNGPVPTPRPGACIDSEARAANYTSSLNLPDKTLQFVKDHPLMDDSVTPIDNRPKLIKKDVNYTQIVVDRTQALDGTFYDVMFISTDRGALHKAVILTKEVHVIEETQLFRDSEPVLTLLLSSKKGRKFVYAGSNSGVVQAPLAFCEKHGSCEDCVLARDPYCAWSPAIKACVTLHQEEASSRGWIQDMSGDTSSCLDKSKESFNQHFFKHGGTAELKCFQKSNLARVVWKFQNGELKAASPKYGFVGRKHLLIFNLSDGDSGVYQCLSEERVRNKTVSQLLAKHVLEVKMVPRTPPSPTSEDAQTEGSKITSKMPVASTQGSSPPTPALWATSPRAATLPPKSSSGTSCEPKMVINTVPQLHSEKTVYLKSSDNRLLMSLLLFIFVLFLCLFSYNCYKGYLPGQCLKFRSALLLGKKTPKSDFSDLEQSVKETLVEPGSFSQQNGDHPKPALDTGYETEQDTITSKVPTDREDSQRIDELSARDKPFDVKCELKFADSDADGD

[6] = target: CynoCD100-HEK293 (cynomolgus monkey); test: FACS; remark: listed apart in the source
[7] = target: T3, full-length mouse CD100 protein …; test: FACS
[8] = target: T2, full-length human CD100 protein HuCD100 …; test: FACS; remark: listed apart in the source
[9] = target: CynoCD100-His (cynomolgus monkey); test: ELISA; FIG. 5F
[10] = target: T4, HuCD100-His (human, UniProt Q92854 22-734); test: ELISA; FIG. 5D
[11] = target: T5, MusCD100-His (mouse, UniProt O09126 24-733); test: ELISA; FIG. 5E
T5 chain: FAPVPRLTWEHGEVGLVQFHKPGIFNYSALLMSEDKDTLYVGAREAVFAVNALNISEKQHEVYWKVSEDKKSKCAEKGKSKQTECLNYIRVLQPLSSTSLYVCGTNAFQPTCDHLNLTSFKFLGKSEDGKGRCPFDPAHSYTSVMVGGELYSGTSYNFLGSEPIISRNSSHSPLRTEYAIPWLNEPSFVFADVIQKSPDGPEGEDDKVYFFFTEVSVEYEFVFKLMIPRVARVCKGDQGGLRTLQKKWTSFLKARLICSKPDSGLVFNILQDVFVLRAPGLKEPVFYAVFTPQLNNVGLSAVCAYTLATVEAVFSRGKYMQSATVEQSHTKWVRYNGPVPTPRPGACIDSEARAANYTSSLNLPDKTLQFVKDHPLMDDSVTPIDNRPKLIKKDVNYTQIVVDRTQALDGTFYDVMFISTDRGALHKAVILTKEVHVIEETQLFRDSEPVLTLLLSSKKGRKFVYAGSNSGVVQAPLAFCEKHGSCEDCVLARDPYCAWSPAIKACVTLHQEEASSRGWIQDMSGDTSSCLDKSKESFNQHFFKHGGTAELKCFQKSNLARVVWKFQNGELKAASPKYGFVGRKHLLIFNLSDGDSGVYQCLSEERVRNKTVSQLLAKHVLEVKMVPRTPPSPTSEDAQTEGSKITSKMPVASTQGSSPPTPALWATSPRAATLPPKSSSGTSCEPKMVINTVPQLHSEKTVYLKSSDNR

[12] = target: T2, full-length human CD100 protein HuCD100 …; test: FACS; HuPBMC cells
[13] = target: T2, full-length human CD100 protein HuCD100 …; test: FACS binding; FIG. 11D
[14] = target: T6, HuCD100-Fc (in-house prepared) (human, UniProt Q92854 22-734, biotinylated in the Plexin binding and blocking assays (sites not given)); test: FACS blocking; HuPlexin-B1-HEK293, FIG. 12B
[15] = target: T6, HuCD100-Fc (in-house prepared); test: FACS blocking; HuPlexin-B2-HEK293, FIG. 12D
[16] = target: T7, MusCD100-Fc (mouse, UniProt O09126 24-733, biotinylated in the Plexin binding and blocking assays (sites not given)); test: FACS blocking; MusPlexin-B1-HEK293, FIG. 12F
T7 chain: T5 chain

[17] = target: T6, HuCD100-Fc (in-house prepared); test: FACS blocking; blocking of binding to HuPlexin-B1-HEK293
[18] = target: T6, HuCD100-Fc (in-house prepared); test: FACS blocking; FIG. 8B, blocking of binding to HuPlexin-B2-HEK293
[19] = target: T4, HuCD100-His; test: ELISA
[20] = target: T5, MusCD100-His; test: ELISA
[21] = target: CynoCD100-His (cynomolgus monkey); test: ELISA
[22] = target: CynoCD100-HEK293 (cynomolgus monkey); test: FACS; remark: listed apart in the source
[23] = target: CynoCD100-His (cynomolgus monkey); test: ELISA; FIG. 5C

T1 sequence (G7PSE7 entry or part of it): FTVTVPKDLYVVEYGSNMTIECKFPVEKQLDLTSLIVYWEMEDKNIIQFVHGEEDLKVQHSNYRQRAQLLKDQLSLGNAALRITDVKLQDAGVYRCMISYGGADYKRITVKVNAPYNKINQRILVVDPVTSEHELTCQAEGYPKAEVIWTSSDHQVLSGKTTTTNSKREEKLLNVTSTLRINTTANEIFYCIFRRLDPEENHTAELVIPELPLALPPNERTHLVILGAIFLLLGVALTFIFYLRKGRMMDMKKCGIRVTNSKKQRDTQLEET

EC50 [1]: 0.988 µg/mL
B1: Avelumab (antibody, V domains shown)
VH: EVQLLESGGGLVQPGGSLRLSCAASGFTFSSYIMMWVRQAPGKGLEWVSSIYPSGGITFYADTVKGRFTISRDNSKNTLYLQMNSLRAEDTAVYYCARIKLGTVTTVDYWGQGTLVTVSS
VL: QSALTQPASVSGSPGQSITISCTGTSSDVGGYNYVSWYQQHPGKAPKLMIYDVSNRPSGVSNRFSGSKSGNTASLTISGLQAEDEADYYCSSYTSSSTRVFGTGTKVTVLG

EC50 [2]: 0.242 µg/mL
B2: m18 (antibody, V domains shown)
VH: EVQLVESGGGLVQPGGSLRLSCAASRTDSNIHGMHWYRQAPGKGREWVGMIFIDGNTIVTDSVKGRFTISRDNAKNTLYLQMNTLRAEDTAVYYCAADSRGYGRAWGQGTTVTVSS

EC50 [3]: 0.579 nM
EC50 [4]: 0.374 nM
EC50 [5]: 0.945 nM
EC50 [6]: 0.327 nM
EC50 [7]: 1.15 nM
EC50 [8]: 0.467 nM
EC50 [9]: 0.0512 nM
EC50 [10]: 0.0452 nM
EC50 [11]: 59.4 nM
EC50 [12]: 0.754 nM
EC50 [13]: 0.367 nM
IC50 [14]: 0.837 nM
IC50 [15]: ~4.24 nM
IC50 [16]: 9.86 nM
IC50 [17]: 1.06 nM
IC50 [18]: 2.48 nM
B3: A31 (antibody, V domains shown)
VH: EVQLVESGGGLVQPEGSLRLSCAASGFPLDYYAIGWFRQAPGKEREGVSCIISGGSTKYSASVKGRFTISRDSANNTVYLQMNSLKPEDTAVYFCAVSWSCDLFPRDTYGWDAWGQGTLVTVSS

EC50 [7]: 1.78 nM
EC50 [8]: 0.504 nM
EC50 [19]: 0.202 nM
EC50 [20]: 0.23 nM
EC50 [21]: 0.131 nM
EC50 [12]: 0.356 nM
EC50 [13]: 0.413 nM
IC50 [14]: 0.8 nM
IC50 [15]: 5.43 nM
IC50 [16]: 4.84 nM
B4: A31-VHH1 (antibody, V domains shown)
VH: B3 VH with N75K, K86R, P87A

EC50 [22]: 0.516 nM
EC50 [21]: 0.743 nM
B5: A9-VHH2 (antibody, V domains shown)
VH: QVQLVESGGGLVQAGGSLRLSCAASGFSLDYYAIGWFRQAPGKEREEVSCISSSGGSTDYADSVKGRFTISRAYAKVYLQMNSLRAEDTAVYYCAAGVSGSVCPPLIGAYWGQGTLVTVSS

EC50 [22]: 0.551 nM
EC50 [21]: 0.169 nM
B6: A9-VHH1 (antibody, V domains shown)
VH: B5 VH with A14P, R85K, A86P

EC50 [3]: 0.776 nM
EC50 [22]: 0.47 nM
EC50 [23]: 0.178 nM
B7: A9 (antibody, V domains shown)
VH: B5 VH with R85K, A86P, L116Q

EC50 [22]: 0.835 nM
EC50 [21]: 1.31 nM
B8: A9-VHH3 (antibody, V domains shown)
VH: B5 VH with E44G, R45L
